From PMC4718643, “Characterization of a Mannose-6-Phosphate Isomerase from Bacillus amyloliquefaciens and Its Application in Fructose-6-Phosphate Production” (PLoS ONE, 2015)

Substrate: O=P(O)(O)OC[C@H]1OC(O)[C@@H](O)[C@@H](O)[C@@H]1O
Assay: purified protein
Format: biochemical, Bacillus amyloliquefaciens
Settings: 0.5 mM Co2+ (general method), phosphate pH 7.5, 50 °C

B1: BsM6PI (Bacillus subtilis subsp. subtilis str. 168; K96Q) (protein)
chain: MTQSPIFLTPVFKEKIWGGTALRDRFGYSIPSESTGECWAISAHPKGPSTVANGPYKGKTLIELWEEHREVFGGVEGDRFPLLTKLLDVKEDTSIQVHPDDYYAGENEEGELGKTECWYIIDCKENAEIIYGHTARSKTELVTMINSGDWEGLLRRIKIKPGDFYYVPSGTLHALCKGALVLETQQNSDATYRVYDYDRLDSNGSPRELHFAKAVNAATVPHVDGYIDESTESRKGITIKTFVQGEYFSVYKWDINGEAEMAQDESFLICSVIEGSGLLKYEDKTCPLKKGDHFILPAQMPDFTIKGTCTLIVSHI
notes: full length, N-terminal His6 fusion (pET28a, BamHI/SalI), E. coli BL21(DE3), Ni-NTA; primers encode N-terminus MTQS and C-terminus IVSHI
Km: 12 mM
